Reference: patent publication US20200079844A1
Where two headings read alike, the source gives them in different places.

Assays:
rhesus TNFα (rhesus) [1] = molecular target: rhesus TNFα (rhesus) (UniProt P48094)
rhesus TNFα (rhesus) [2] = molecular target: rhesus TNFα (rhesus) (UniProt P48094); remark: listed apart in the source
human TNFα (human) [3] = molecular target: human TNFα (human) (UniProt P01375); test: cell-based or functional assay
human TNFα (human) [4] = molecular target: human TNFα (human) (UniProt P01375); test: cell-based or functional assay; remark: listed apart in the source
rhesus TNFα (rhesus) [5] = molecular target: rhesus TNFα (rhesus) (UniProt P48094); test: cell-based or functional assay

human TNFα (human), sequence (P01375 77-233 limits assumed): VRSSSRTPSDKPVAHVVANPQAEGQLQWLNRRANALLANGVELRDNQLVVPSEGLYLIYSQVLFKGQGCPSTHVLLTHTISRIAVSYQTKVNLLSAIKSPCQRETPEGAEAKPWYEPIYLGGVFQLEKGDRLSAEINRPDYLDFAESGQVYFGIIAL
rhesus TNFα (rhesus), sequence (P48094 77-233 limits assumed): as the sequence (P01375 77-233 limits assumed) above, with R44T, T72N, R138L counted along it

Row | EC50 (read off the curve) (rhesus TNFα (rhesus) [1]) [nM] | EC50 (read off the curve) (rhesus TNFα (rhesus) [2]) [nM] | EC50 in nM; alphaKYM cell assay (10000 c/w), human TNFa @ 1 ng/ml (human TNFα (human) [4]) [nM] | IC50 in pM; TNFα-induced IL-6 production by RA synovial fibroblasts, donor DS534 P4 (human TNFα (human) [4]) [pM] | IC50 in pM; TNFα-induced IL-6 production by RA synovial fibroblasts, donor DS592 P4 (human TNFα (human) [4]) [pM] | IC50 in pM; TNFα-induced IL-6 production by RA synovial fibroblasts, donor DS605 P3 (human TNFα (human) [4]) [pM] | IC50 in pM; TNFα-induced IL-6 production by RA synovial fibroblasts, donor KM05-179 P4 (human TNFα (human) [4]) [pM] | p[IC]50; TNFα-induced IL-6 production by RA synovial fibroblasts, donor DS534 P4 (human TNFα (human) [4]) | p[IC]50; TNFα-induced IL-6 production by RA synovial fibroblasts, donor DS592 P4 (human TNFα (human) [4]) | p[IC]50; TNFα-induced IL-6 production by RA synovial fibroblasts, donor DS605 P3 (human TNFα (human) [4]) | p[IC]50; TNFα-induced IL-6 production by RA synovial fibroblasts, donor KM05-179 P4 (human TNFα (human) [4]) | Substance | EC50 in nM (mean); cytotoxicity assay, human TNFα (human TNFα (human) [3]) [nM] | EC50 in nM (mean); cytotoxicity assay, human TNFα (human TNFα (human) [4]) [nM] | EC50 in nM (mean); L929s + Act D cytotoxicity assay, rhesus TNFa @ 0.5 ng/ml (rhesus TNFα (rhesus) [5]) [nM] | EC50 in nM (mean); L929s + Act D cytotoxicity assay, rhesus TNFα @ 0.5 ng/ml (rhesus TNFα (rhesus) [5]) [nM] | EC50 in nM (mean); L929s + Act D cytotoxicity assay, human TNFa @ 0.5 ng/ml (human TNFα (human) [4]) [nM] | EC50 in nM (mean); L929s + Act D cytotoxicity assay, human TNFα @ 0.5 ng/ml (human TNFα (human) [4]) [nM]
1 | 0.1 | 0.09 | 0.103 | – | – | – | – | – | – | – | – | Humira (Adalimumab) (antibody) | 0.127 | 0.141 | 0.071 | 0.071 | – | –
2 | – | – | – | 132 | 363 | 427 | 537 | 9.88 | 9.44 | 9.37 | 9.27 | ALX0071 | – | – | – | – | – | –
3 | – | 0.01 | 0.04 | 282 | 324 | 309 | 309 | 9.55 | 9.49 | 9.51 | 9.51 | Enbrel (Etanercept) (Fc fusion) | – | – | 0.009 | 0.009 | 0.009 | 0.009
4 | – | – | – | – | – | – | – | – | – | – | – | Remicade (Infliximab) (antibody) | – | – | > 6.7 | > 6.7 | – | –
